The record followed here is patent US20190016828A1 (Hoffmann-La Roche, published 2019).

The target in assay [1] is T1, human neonatal Fc-receptor (FcRn) (human, UniProt P55899 24-297; P61769 21-119).
T1 construct: also called human FcRn; huFcRn
The experiment in a line: FcRn affinity chromatography, anti-IGF-1R KiH antibody.

In assay [2] the target is T1, human neonatal Fc-receptor (FcRn). Nature of the assay: SPR (BIAcore), FcRn immobilized on a CM5 chip, pH 6.0, 200 nM sample. (In general: Surface plasmon resonance follows binding to a sensor surface in real time, without labels.)
Procedure: The binding properties of wild-type antibody and the mutants to FcRn were analyzed by surface plasmon resonance (SPR) technology using a BIAcore T100 instrument (BIAcore AB, Uppsala, Sweden). […] In the current assay, the FcRn receptor was immobilized onto a BIAcore CM5-biosensor chip (GE Healthcare Bioscience, Uppsala, Sweden) via amine coupling to a level of 400 Response units (RU). The assay was carried out at room temperature with PBS, 0.05% Tween20 pH 6.0 (GE Healthcare Bioscience) as running and dilution buffer. 200 nM of samples were injected at a flow rate of 50 μL/min at room temperature. Association time was 180 sec., dissociation phase took 360 sec. Regeneration of the chip surface was reached by a short injection of HBS-P, pH 8.0. Evaluation of SPR-data was performed by comparison of the biological response signal height at 180 sec. after injection and at 300 sec. after injection. The corresponding parameters are the RU max level (180 sec. after injection) and late stability (300 sec. after end of injection).

Residue numbers refer to the chain shown, from its start. Names may count otherwise.

T1 sequence (P55899 24-297 limits assumed, chain 1 of 2): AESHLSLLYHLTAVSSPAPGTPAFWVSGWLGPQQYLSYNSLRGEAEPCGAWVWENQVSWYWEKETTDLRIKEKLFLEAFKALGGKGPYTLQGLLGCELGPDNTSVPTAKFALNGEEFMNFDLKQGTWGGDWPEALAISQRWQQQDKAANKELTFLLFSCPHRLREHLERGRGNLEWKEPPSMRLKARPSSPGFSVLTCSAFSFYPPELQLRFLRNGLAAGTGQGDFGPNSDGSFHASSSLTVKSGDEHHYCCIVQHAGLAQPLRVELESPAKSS
T1 sequence (P61769 21-119 limits assumed, chain 2 of 2): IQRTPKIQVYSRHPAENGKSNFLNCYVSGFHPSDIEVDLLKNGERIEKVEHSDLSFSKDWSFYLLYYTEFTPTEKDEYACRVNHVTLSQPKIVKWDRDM

B1: IGF-1R 0034 (antibody, human IgG1, kappa)
light: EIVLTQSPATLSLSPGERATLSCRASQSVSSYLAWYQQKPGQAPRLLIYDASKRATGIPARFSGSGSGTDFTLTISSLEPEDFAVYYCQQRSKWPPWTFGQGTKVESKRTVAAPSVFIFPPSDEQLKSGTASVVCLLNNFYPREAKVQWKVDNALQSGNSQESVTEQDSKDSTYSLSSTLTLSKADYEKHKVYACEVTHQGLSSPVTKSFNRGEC
heavy 1: not shown
heavy 2: QVELVESGGGVVQPGRSQRLSCAASGFTFSSYGMHWVRQAPGKGLEWVAIIWFDGSSTYYADSVRGRFTISRDNSKNTLYLQMNSLRAEDTAVYFCARELGRRYFDLWGRGTLVSVSSASTKGPSVFPLAPSSKSTSGGTAALGCLVKDYFPEPVTVSWNSGALTSGVHTFPAVLQSSGLYSLSSVVTVPSSSLGTQTYICNVNHKPSNTKVDKKVEPKSCDKTHTCPPCPAPELLGGPSVFLFPPKPKDTLMASRTPEVTCVVVDVSHEDPEVKFNWYVDGVEVHNAKTKPREEQYNSTYRVVSVLTVLAQDWLNGKEYKCKVSNKALPAPIEKTISKAKGQPREPQVCTLPPSRDELTKNQVSLSCAVKGFYPSDIAVEWESNGQPENNYKTTPPVLDSDGSFFLVSKLTVDKSRWQQGNVFSCSVMHEALHNAYTQKSLSLSPGK
notes: tied by description; also called <IgF-1R> IgG1 knob wt, hole I253A, H310A, H435A; anti-IGF-1R antibody, one chain with I253A/H310A/H435A
For B1, the “retention time on FcRn affinity column” value in assay [1] amounted to 42 min.

B2: IGF-1R 0037 (antibody, human IgG1, kappa)
light: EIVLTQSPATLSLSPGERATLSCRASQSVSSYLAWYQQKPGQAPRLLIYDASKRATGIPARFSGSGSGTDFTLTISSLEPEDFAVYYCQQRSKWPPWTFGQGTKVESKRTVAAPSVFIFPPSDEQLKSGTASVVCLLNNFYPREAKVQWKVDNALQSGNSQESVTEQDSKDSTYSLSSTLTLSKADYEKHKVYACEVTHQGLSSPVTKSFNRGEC
heavy 1: not shown
heavy 2: B1 heavy 2 with L252D, A254I, A311H, L315D, L433D, A436H
notes: tied by description; also called <IGF-1R> IgG1 knob wt, hole L251D, L314D, L432D; anti-IGF-1R antibody, one chain with L251D/L314D/L432D
Turning to B2, in assay [1], the “retention time on FcRn affinity column” value amounted to 40.9 min.

B3: IGF-1R 0035 (antibody, human IgG1, kappa)
light: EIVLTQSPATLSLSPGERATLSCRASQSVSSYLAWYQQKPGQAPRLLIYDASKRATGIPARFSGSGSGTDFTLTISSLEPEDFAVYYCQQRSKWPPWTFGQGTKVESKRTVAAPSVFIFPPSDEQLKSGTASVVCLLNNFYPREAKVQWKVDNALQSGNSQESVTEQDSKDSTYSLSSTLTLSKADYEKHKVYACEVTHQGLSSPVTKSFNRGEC
heavy 1: not shown
heavy 2: B1 heavy 2 with A254I, H434A, A436H, Y437A
notes: also called <IGF-1R> IgG1 knob wt, hole H310A, H433A, Y436A; IGF-1R 0035 (with HHY-AAA mutation in one Fc-region polypeptide)
As for B3, the “retention time on FcRn affinity column” value in assay [1] came to 42.4 min.

B4: IGF-1R 0036 (antibody, human IgG1, kappa)
light: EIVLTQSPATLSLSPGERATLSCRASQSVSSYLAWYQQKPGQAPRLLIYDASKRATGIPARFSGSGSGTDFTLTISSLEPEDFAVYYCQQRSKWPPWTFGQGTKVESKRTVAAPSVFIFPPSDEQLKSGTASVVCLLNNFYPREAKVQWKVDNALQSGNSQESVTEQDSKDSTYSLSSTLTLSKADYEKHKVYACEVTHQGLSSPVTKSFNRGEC
heavy 1: not shown
heavy 2: B1 heavy 2 with M253Y, A254I, S255T, T257E, A311H, A436H
notes: tied by description; also called <IGF-1R> IgG1 knob wt, hole M252Y, S254T, T256E; anti-IGF-1R antibody, one chain with M252Y/S254T/T256E
Take B4: the “retention time on FcRn affinity column” value in assay [1] worked out at 57.6 min.

B5: YTE-mutant of anti-IGF-1R antibody (antibody, human IgG1, kappa)
light: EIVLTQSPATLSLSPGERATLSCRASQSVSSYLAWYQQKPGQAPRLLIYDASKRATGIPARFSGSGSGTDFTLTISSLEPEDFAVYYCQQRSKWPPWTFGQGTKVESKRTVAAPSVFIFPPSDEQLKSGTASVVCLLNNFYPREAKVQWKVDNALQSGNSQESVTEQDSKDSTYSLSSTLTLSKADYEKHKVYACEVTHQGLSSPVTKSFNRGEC
heavy: QVELVESGGGVVQPGRSQRLSCAASGFTFSSYGMHWVRQAPGKGLEWVAIIWFDGSSTYYADSVRGRFTISRDNSKNTLYLQMNSLRAEDTAVYFCARELGRRYFDLWGRGTLVSVSSASTKGPSVFPLAPSSKSTSGGTAALGCLVKDYFPEPVTVSWNSGALTSGVHTFPAVLQSSGLYSLSSVVTVPSSSLGTQTYICNVNHKPSNTKVDKKVEPKSCDKTHTCPPCPAPELLGGPSVFLFPPKPKDTLYITREPEVTCVVVDVSHEDPEVKFNWYVDGVEVHNAKTKPREEQYNSTYRVVSVLTVLHQDWLNGKEYKCKVSNKALPAPIEKTISKAKGQPREPQVYTLPPSRDELTKNQVSLTCLVKGFYPSDIAVEWESNGQPENNYKTTPPVLDSDGSFFLYSKLTVDKSRWQQGNVFSCSVMHEALHNHYTQKSLSLSPG
notes: IgG1; also called <IGF-1R> IgG1 with M252Y, S254T, T256E; anti-IGF-1R IgG1 with YTE mutation
Take B5: the binding result in assay [2] is on record as “binds”.
